These are literature values, as cited in publication PMC4626678.

The data set addresses Trypsin (Bos taurus) (UniProt P00760).

Chain of Trypsin (Bos taurus) (P00760 149-246): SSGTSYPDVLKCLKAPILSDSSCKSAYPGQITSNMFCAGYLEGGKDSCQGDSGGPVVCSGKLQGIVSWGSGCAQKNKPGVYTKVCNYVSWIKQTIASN
Chain of ShPI-1 (P31713 whole entry): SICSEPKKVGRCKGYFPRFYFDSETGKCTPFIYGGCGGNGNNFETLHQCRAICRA

As a reminder, the Ki is a dissociation constant, usually derived from enzyme kinetics or from competition with a known ligand. For ShPI-1 (from UniProt P31713), the inhibition constant Ki was 0.11 nM.
